From publication PMC9529153

Experiments:
Glu105 = assay: UV-vis; conditions: Not stated for the titration. The purification buffer SD contains 150 mM NaCl., Not stated for the titration. The purified protein was in buffer SD: 150 mM NaCl, 50 mM Tris-HCl pH 7.0, 0.02% DDM. The protocol is referred to ref 8., detergent-solubilised, retinal-bound AbHeR WT. Light adaptation is not stated.
[1] = target: Actinobacteria bacterium IMCC26103 heliorhodopsin (AbHeR) wild type (Actinobacteria bacterium IMCC26103)
Chain of Actinobacteria bacterium IMCC26103 heliorhodopsin (AbHeR) wild type (Actinobacteria bacterium IMCC26103) (main, as listed by the source): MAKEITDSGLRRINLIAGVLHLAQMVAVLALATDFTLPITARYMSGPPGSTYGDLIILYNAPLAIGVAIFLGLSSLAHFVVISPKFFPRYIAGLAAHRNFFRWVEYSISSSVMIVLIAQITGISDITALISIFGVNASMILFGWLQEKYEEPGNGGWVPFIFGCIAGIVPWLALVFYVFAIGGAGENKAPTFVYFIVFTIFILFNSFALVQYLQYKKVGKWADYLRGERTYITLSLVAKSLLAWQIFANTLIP

[2] = target: AbHeR K216Q (Actinobacteria bacterium IMCC26103); assay: ITC; AbGS injected into purified AbHeR (WT or mutant) at 25°C, MicroCal ITC200; both in buffer SD (150 mM NaCl, 50 mM Tris-HCl pH 7.0, 0.02% DDM); in the absence of light
[3] = target: AbHeR K148Q (Actinobacteria bacterium IMCC26103); assay: as above
[4] = target: AbHeR E151Q (Actinobacteria bacterium IMCC26103); assay: as above
[5] = target: Actinobacteria bacterium IMCC26103 heliorhodopsin (AbHeR) wild type (Actinobacteria bacterium IMCC26103); assay: as above
[6] = target: AbHeR D223N (Actinobacteria bacterium IMCC26103); assay: as above
[7] = target: Actinobacteria bacterium IMCC26103 heliorhodopsin (AbHeR) wild type (Actinobacteria bacterium IMCC26103); assay: ITC; purified AbGS with AbHeR in inverted membrane vesicles (IMV) of E. coli C43 (DE3), no detergent; text: IMVs injected into AbGS, legend: AbGS added to IMVs; in the absence of light
[8] = target: AbHeR K216Q (Actinobacteria bacterium IMCC26103)
[9] = target: Actinobacteria bacterium IMCC26103 heliorhodopsin (AbHeR) wild type (Actinobacteria bacterium IMCC26103); remark: listed apart in the source

amount of product (Pi) of the AbGS biosynthetic reaction with AbHeR WT IMV at 150 min, in the absence of light, against AbHeR K216Q IMV [1] [times]	amount of product (Pi) of the AbGS biosynthetic reaction with AbHeR WT IMV at 150 min, in the presence of light against the absence of light [1] [times]	amount of product (Pi) of the AbGS biosynthetic reaction with AbHeR WT IMV at 150 min, in the presence of light, against AbHeR K216Q IMV [1] [times]	Kd [2] [µM]	Kd [3] [µM]	dH [3] [kJ/mol]	Kd [4] [µM]	dH [4] [kJ/mol]	Kd [5] [µM]	dH [5] [kJ/mol]	Kd [6] [µM]	dH [6] [kJ/mol]	Kd [7] [µM]	kcat/Km of AbGS (Glu, Mn2+-supported biosynthetic reaction, 37°C) with AbHeR K216Q IMV, dark; AbGS alone 5.42 [8] [M⁻¹ s⁻¹]	kcat/Km of AbGS (Glu, Mn2+-supported biosynthetic reaction, 37°C) with AbHeR K216Q IMV, light (532 nm); AbGS alone 5.42 [8] [M⁻¹ s⁻¹]	kcat/Km of AbGS (Glu, Mn2+-supported biosynthetic reaction, 37°C) with AbHeR WT IMV, dark; AbGS alone 5.42 [9] [M⁻¹ s⁻¹]	kcat/Km of AbGS (Glu, Mn2+-supported biosynthetic reaction, 37°C) with AbHeR WT IMV, light (532 nm); AbGS alone 5.42 [9] [M⁻¹ s⁻¹]	Substance	pKa (Glu105)
																	Heliorhodopsin AbHeR (Actinobacteria bacterium IMCC26103)	2.84 (± 1.07)
1.09	1.1	1.2	3680	137	22.2	30	9.87	100	8.67	44	4.75	6.06	5.45	6.91	8.01	12.2	Actinobacteria bacterium IMCC26103 glutamine synthetase (AbGS) (enzyme)	
